Assay results from the domain aggregation screens of Martell et al. (2025).

Experiment: soluble fraction after stress (log2 fold change); higher = more stays soluble; pooled small domains, quantitative proteomics
Settings: stress: 50 degC
In short: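 After stress at 50°C, the amount of each protein still soluble was measured. This was done on pooled custom libraries of small protein domains, using high-throughput quantitative proteomics. The figure given is a base-two log fold change and stands for aggregation propensity, with higher values meaning more protein stays in solution.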

| Sequence | soluble fraction (log2) |
| --- | --- |
| HMENISVESKMKLLLKSLKTRDFISLPELVLKGESKLAISVILVAALELNRKGYIEVVQAEQFGEIYFKNT | -0.191 |
| HMLEINTIIGNNLKKIRQEKKLTLDELAGITGVSKGMLSQIEKGTTNPTINTIWKISNGLNVPYTYLLEDD | 0.183 |
| HMERYLLRDNIPNALHGERLDRVIAIMTGLSRSAVSALIKSNQVLRNGQIAQSISEKVVEGDELEVHLEP | -0.0223 |
| HMTSNSLNLKDEISAFLTKNAGISYSAERIAHALNMDNADQFTPIIQTLAQLEREKKVRVTDKGEFEAVIK | 0.0897 |
| HMSEYTRGELVSSLEAGEVAAVSIRPNRETPTGEAQIVLSDGQHRVLYVTDVREIEELVSSYGLNPQVEK | 0.233 |
| HMNYNEKGEYTRTLTSGSETAVMTYRNFGETLDVALFKNGVQTDSLRLIKSEPGVLYRQSNGQFEKI | 0.0586 |
| HMSGHEVMVQRITAIIAELYQYGFVSRKKMMDEFNISERTLYRDLNRLGDRIVPDGDGIYRLAPAYA | -1.55 |
| HMVREVGYNAFLAMLDSGAVKEVARDESEGQITFLATDEKGKERVYKTGIWPDDTLTERLNTAGVEFA | 0.178 |
| HMQSNIHELQKKLNEALQALSEDHRAVVTMFDIQGMPHAEISKILGVSEGTVRSRLYYAHQQLQGHL | -1.03 |
| HMDASFTYSLETHPAGVLVRVDGLEYETPFSILLPQGVHRLEVAGEERFFYLSETTHQFLEID | -0.901 |
| HMEMGNKIKELRTKLGITQEELSKTLNVSSQAVSKWENGGLPDLELIPEIAKYFNVTTDYLFDIK | 0.0658 |
| HMEAPNELLVPEGARPARADRVLAAAFPEHSRTALQRAFDAGLVRRANLVLSRDTAVAGGDRIAFSLPAV | -0.00557 |
| HMTLGARTLAAIQSLPKVQQAVFTMKHFEGLKYREISQITGTSEGALKASYHIALEKIKAFLREK | -2.53 |
| HMLAGVDTLADRELEVFQMLGRGKSTKEIAQVLNLGESTVETYRARIKEKLQLRSAAELYLRAGQWVRDHG | -0.184 |
| HMTDWNTVEKETLSAIQKVLSGQASWIDLSPADHSIRHMQHEMVQQAGLISQSYGKEPMRRIRIYQNP | 0.117 |
| HMRPQYVDLFTKLSAEEAGAITSKLKELKVEYQLADNGSTIKVPQKDAAEIRLELANEGLPA | 0.141 |
| HMRARTQYWPFVEEKAAELKLPLHLVNVEPLFGEQKVVVHYTANGRIDFRELVHLLARRFHARIEMR | 0.212 |
| HMESTLNYSQFLSLVNEDRVAEVVIQGKELYVTDVNRSRFKVYAPPDPELIGLLRQKRVIISAKP | -0.0196 |
| HMTETPDDLLAALKKNKKAQATFDAFSPSNKKEYILWITEAKTEATRTKRLETAIEWMSEGKARNW | -0.222 |
| HMSPFYALDEVDSFLDGVNVERLAALIARQAEQAQFLVVSHRRPMIGASTRTIGVTQARGAHTQVVGLP | -0.25 |
| HMTIFGWQTDETGKWYRNADGTFFEAGWKEIDGAKYYFDENGYVKTGWLELDGKDYYFDEEGRYDSSKVR | -0.33 |
| HMDNWYIAFNSFLSQNKLTAKNVSELTGLSKPTIDSYKQGKRKPTDENMQIIKDKLGFNISEILYN | -0.265 |
| HMVVNERIKKLRRSLDLTQQEFADRIGVKRNTIANYEIGRNEPIDSVLELIVREFGVSKQWLLDGTGEMF | -0.55 |
| HMEQPAPSTTVDILGGGRAALVTANRELGLALADDEIDYLTDSFTQLGRNPVDVELMMFAQA | 0.00743 |
| HMIQLTDAEFNELVTYIKKNYGINLIKKRLLIEARMYSVLAKHGFTSFTEYINLIKRDPAELNTMLNKLTT | -1.72 |
| HMSPSDLSAEAQKVYALLDGRELSFDTLVEESGFDTGSLLAILMRLEMKMLVEHGADQVYRRSG | -0.58 |
| HMAESTRSRILNAAIEMMETGGESSVRLSAIAEALGIKEPSIYHHFTNRTELVNAAYIEWYW | -0.0152 |
| HMKEIKAPNKINAHLIEEWRSQHPTELFPEEKVDLIYYKGEEYYFVIEEKNELGEIEEWYFAYDGGIDYV | 0.106 |

| Sequence | soluble fraction (log2) |
| --- | --- |
| HMPVASNRDVNLDIGERVFVQEWAPNRTARVQYRGSPWEARLAPGAPAAAGEHRVSAVEGNWLVLEPA | -0.0102 |
| HMQFLKPQDVLFLLKLVVLKGPASIFPAVPESLGLSKAEVHNSAKRVRGARLLPHDSWNPLRKNLLEFL | -0.148 |
| HMHLDIGQLVQRILADIQVGKLADGQRKLPAEPVLMERYQVTRYTLRQALKQLSNMGYTYQMHGIGTFVRQ | -0.863 |
| HMDADRILHKTLKPRELEIYQLIKAYLEEHSQIANAKVQEISGLSEATTRRYLNIFVEFGLLKTS | -0.0476 |
| HMDDTPLNNVIKKIAALPENITLADKSAVLSAWEAYQALSVNLKAQVSNSELLIKAYETILQLEGEDQIK | 0.235 |
| HMNTGFPIILETSDAANLTVGAPIMYRGVEVGKIRNMELNSLGDRVLIHILIGHKYQHLVRQNSEFWFSS | -4.54 |
| HMVLTYYSVLGVKTDATTEEIKSTYKQLAIRNHPDRGGSEEVMKMINLAAEILSDPKSRKEYDLSLDA | -2.87 |
| HMKEDSTIIERIISNLSSASLKTQKAFEYKLTDLMFRFSEGEYEWSSAMEVIREELLPFLNK | 0.0862 |
| HMARIDYHAMDSDDLSFSEGELLEIYDKPGSFWWKGRSLVSGDEGDIPS | -0.157 |
| HMPPRFVPATGADLRRWLDVSGLTAEAAGDLLGVSGARFRQWLSRYRSAPLPDPVRALLVALLRP | -0.155 |
| HMSALTELPVKTVNGKKYHYYVVKQHETVYALSKRFGITPEQLIKYNPSAEDGLQIDQELLFPATEI | 0.161 |
| HMPFGIYGGKVSSLDDLKDKAAVLVPNDVSNEARALLLLEAQGLIKLKEGVGLEATRNDIVEN | ≥ 0.62 |
| HMDALKAVYQWVTRTMMKNQTGVMQTLPNRDLIELNTQITAQRLMQAGVDPTTLKNANQVENAVNIIESR | -0.473 |
| HMDEWDPAILYVGLDYEDAAQIATRLATSGVPYRLSPDGTMITVPDDQVNNMRLTLAGEGFPH | -0.0702 |
| HMGQTDTIIKTTTDLYYEMSTMSDDDKLVVAQTLRDVWMAVGRWSGKLSKKQREKVAEVKRVLGE | -0.833 |
| HMPRNEIQRSVLNELVQWIKNNLAKKLTMQALSRFSGYSEWHLFRLFRHYFNMSPMAYIRQQRMQ | -0.265 |
| HMQQTAEDWKNKGDSLTAQSEYVEAIAAYDEAIRLDPNYAPAWSNKGNALKNLGEYYKAIQAYDEAIRL | 0.198 |
| HMKTLKHYFASIAHEFGREEAELMLLSVFKTPFEQRLMLFMKDPALTEAQVQQLDNLVRQRKQGVPLPYIL | -0.22 |
| HMRPSGEAVNAAYRLLKGANPSGNEGDLIQRAQEVAAILPKLNRSSAAAFAKDAKANGLTQAETIALWKGS | 0.225 |
| HMVVANTAIKSELQNIVANENKQAPLSDQKIVDQLKQAGFDISRRTVVKYRDALGIPTSRNRKR | -0.131 |
| HMPPFDDILAEYYEPLYRHVRRMVVSHDDAKDVMQEAMLRIFQGLDGLKDPSAVRTWVWRIATNEALRH | 0.0662 |
| HMVTKTTYAYERLKREIMDGTLGQGEKLVVNAISQRYQVSPMPIREALLKLEQEGLVQSAPHRGAWVHK | -0.345 |
| HMRVKLVKKSILASGGENIRVDKFLSNHILTMTRTQIKKLFLDGLVQVNKSFVKPGSILKGNEIITFSIPE | -1.8 |
| HMQVVVEKSKEKVIISGNQYYIHIVKKGETAFSIAKAYGITVDELVKNNPSAATVLKEGQALRIPVVE | 0.119 |
| HMQLFKFKNAMMELAKNKNITLDTAEKAIGLEAGFTELVARGVKELALSDVIKISKYFNTTMDSVLD | -0.903 |
| HMANKLTSTNLAKQHKMGLSEMYAELMNSGYLIEKDGKYELTPLGISIGGESKPNRYKKGEFYFLWPSDIS | -0.29 |
| HMTNPPTPADTLFNTVRGVLQSILKSPMKDTEVASALNVSKAQARSWLQRLSDEGLIEKRKNPTAYVL | -0.238 |
